Results on seven molecules are retold here after patent US20040115667A1, “Dna-sequences, which code for an apoptosis signal transduction protein” (priority 2000, published 2004).

Assay [1] has as its system Bcl-rambo-induced cell death (caspase-3 activity) in 293T cells. Description: Effect of apoptosis inhibitors on apoptotic activity of full-length Bcl-rambo in 293T cells. Format: cell-based, human. As for the experimental part:
The effect of different apoptosis inhibitors on the apoptotic activity of Bcl-rambo is investigated in FIG. 6. For this, 293T cells were transfected for 27 hours (shown in FIG. 6A) with 2 μg of Bcl-rambo expression plasmid and 0.5 μg of expression vectors encoding various apoptosis inhibitors, together with 0.5 μg of β-galactosidase expression vector.
(§1) 293T cells (3×10^5 cells) were sown on 60 mm culture dishes on the day before the transfection and then transiently cotransfected with 2 μg of Bcl-rambo expression plasmids and 0.2 μg of EGFP expression vector (pEGFP-C1, from Clontech) or with 0.5 μg of pCMV-β-galactosidase expression vector. The postnuclear lyzates were then analyzed with regard to the fluorescence intensity of EGFP, the galactosidase activity and the caspase-3 activity using a peptide substrate (Ac-DEVD-AMC, from Alexis). In order to be able to compare the individual measurements, the caspase-3 activity (measured as the number of times it was increased by the induction) was standardized using the fluorescence intensity of EGFP or the β-galactosidase activity.

The test system of assay [2] is caspase-3 activity in 293T cells. In words: Caspase-3 activity / apoptosis in 293T cells transfected with Bcl-rambo constructs. The following applies: 2 μg construct, 42 hours; for increase in caspase-3 activity (times increase in activity induced): standardized by EGFP fluorescence. Format: cell-based, human. The method, then:
FIG. 5 describes the Bcl-rambo-induced apoptosis which is induced by the C-terminal domain of Bcl-rambo. For this, 293T cells were transfected with 2 μg of various Bcl-rambo constructs, namely mock transfectants, full-length Bcl-rambo (amino acids 1-485), Bcl-rambo without the C-terminal anchor domain (amino acids 1-459), the N-terminal domain of homology with Bcl-2 (amino acids 1-223), the C-terminal domain containing the BHNo region (amino acids 205-485), the C-terminal domain without the anchor region (amino acids 205-459) and, finally, a truncated N-terminal domain (amino acids 1-201). All the abovementioned constructs are depicted diagrammatically in FIG. 5 (right-hand drawing), with the BH regions (BH4 (4), BH3 (3), BH1 (1) and BH2 (2)) and also, if present, the tandem repeats and/or the anchor regions (MA) being shown diagrammatically. The transfection, which took place jointly together with 0.2 μg of an EGFP expression vector, namely pEGFP-C1, lasted for 42 hours. The graph shown in the upper left of FIG. 5 plots the caspase-3 activity (as the times increase in activity induced). The activity in the individual experimental assays was standardized by taking into account the fluorescence intensity of transfected EGFP, i.e. the cotransfection with the EGFP expression vector was used to check the transfection rate in order to ensure that it was possible to compare the results in the different experimental assays.
It follows from the results of the experiments depicted in FIG. 5 that the BHNo domain (and not, for example, the domain having homology with Bcl-2) is responsible for inducing cell death when Bcl-rambo is overexpressed. […] In the case of all the cell extracts, the strength of the expression of the individual constructs in the transfected cells was checked by Western blot analysis using anti-Flag antibody M2 (lower left-hand diagram in FIG. 5).
as §1

The subject of assay [3] is proapoptotic proteins Bax, Bak, Bik, Bid, Bim, Bad and Bcl-rambo. In words: Co-immunoprecipitation of Bcl-rambo with proapoptotic proteins of the Bcl-2 family in 293T cells. The following applies: anti-Flag M2 agarose immunoprecipitation, anti-EE blot, also with z-VAD-fmk. Format: binding.
The subject of assay [4] is antiapoptotic proteins (Bcl-2, Bcl-XL, Bcl-w, A1, MCL-1, E1B-19K and BHRF1). In words: Co-immunoprecipitation of Bcl-rambo with antiapoptotic proteins of the Bcl-2 family in 293T cells. The following applies: HA-labeled Bcl-rambo with Flag-labeled antiapoptotic protein. It counts as binding.
Assay [5] deals with T1, proapoptotic proteins Bax, Bak, Bik, Bid, Bim, Bad and Bcl-rambo (Homo sapiens, UniProt Q9BXK5).
T1 construct: expressed in transfected cells; host or cells: 293T cells
Description: Co-immunoprecipitation of Bcl-rambo with proapoptotic proteins of the Bcl-2 family in 293T cells. Format: binding. The following applies: co-immunoprecipitation.

Entries after “also recorded” stand apart in the source; their conditions may differ. Peptide text beside a SMILES is read from it. * marks the point of attachment. Cbz = O=C(OCc1ccccc1)*; CH2F = FC*

Turning to “c-IAP2: apoptosis inhibitor of the IAP family, coexpressed”, in assay [1] (293T cells, 27 hours, 2 μg Bcl-rambo plasmid, 0.5 μg inhibitor vector, standardized by β-galactosidase), the “blocking of Bcl-rambo-induced cell death by coexpressed apoptosis inhibitor” value is “act as inhibitors; also recorded: inhibitory effect”. Regarding `COC(=O)C[C@H](NC(=O)[C@H](C)NC(=O)[C@@H](NC(=O)OCc1ccccc1)C(C)C)C(=O)CF` [z-VAD-fmk, reference compound] (Cbz-Val-Ala-Asp(OMe)-CH2F), in assay [1] (not depicted in FIG. 6), the “suppression of Bcl-rambo-induced cell death by pancaspase inhibitor” value is reported as “completely suppressed”.

B1: C-terminal BHNo domain (amino acids 205-459): C-terminal domain with BHNo region and membrane anchor; range printed as 205-459, probably 205-485 (protein, UniProt Q9BXK5 205-485, looked up, fragment)
chain: SLESEEEEYPGITAEDSNDIYILPSDNSGQVSPPESPTVTTSWQSESLPVSLSASQSWHTESLPVSLGPESWQQIAMDPEEVKSLDSNGAGEKSENNSSNSDIVHVEKEEVPEGMEEAAVASVVLPARELQEALPEAPAPLLPHITATSLLGTREPDTEVITVEKSSPATSLFVELDEEEVKAATTEPTEVEEVVPALEPTETLLSEKEINAREESLVEELSPASEKKPVPPSEGKSRLSPAGEMKPMPLSEGKSILLFGGAAAVAILAVAIGVALALRKK
B1: the “increase in caspase-3 activity (times increase in activity induced)” value in assay [2] is on record as “approx. 80 fold”.

B2: 1-203: truncated N-terminal domain of Bcl-rambo; printed 1-203, elsewhere 1-201 (protein, UniProt Q9BXK5 1-201, looked up, fragment)
chain: MASSSTVPLGFHYETKYVVLSYLGLLSQEKLQEQHLSSPQGVQLDIASQSLDQEILLKVKTEIEEELKSLDKEISEAFTSTGFDRHTSPVFSPANPESSMEDCLAHLGEKVSQELKEPLHKALQMLLSQPVTYQAFRECTLETTVHASGWNKILVPLVLLRQMLLELTRRGQEPLSALLQFGVTYLEDYSAEYIIQQGGWG
For B2, the “effect on cell survival / induction of cell death on overexpression” value (“effect on cell survival / induction” below) in assay [2] is recorded as “no effect on cell survival rate”.

B3: amino acids 1-223: N-terminal domain of Bcl-rambo with homology to Bcl-2 (protein, UniProt Q9BXK5 1-223, looked up, fragment)
chain: MASSSTVPLGFHYETKYVVLSYLGLLSQEKLQEQHLSSPQGVQLDIASQSLDQEILLKVKTEIEEELKSLDKEISEAFTSTGFDRHTSPVFSPANPESSMEDCLAHLGEKVSQELKEPLHKALQMLLSQPVTYQAFRECTLETTVHASGWNKILVPLVLLRQMLLELTRRGQEPLSALLQFGVTYLEDYSAEYIIQQGGWGTVFSLESEEEEYPGITAEDSND
On to B3, for which the “effect on cell survival / induction” value in assay [2] was “no effect on cell survival rate”. The “protein/protein interaction with proapoptotic Bcl-2 family proteins” value in assay [3] is “does not interact with other proteins of the Bcl-2 family”. In assay [4], the “interaction with antiapoptotic Bcl-2 family proteins” value is “does not interact with other proteins of the Bcl-2 family”.

B4: 205-459 construct: C-terminal domain of Bcl-rambo without the anchor region (amino acids 205-459) (protein, UniProt Q9BXK5 205-459, looked up, fragment)
chain: SLESEEEEYPGITAEDSNDIYILPSDNSGQVSPPESPTVTTSWQSESLPVSLSASQSWHTESLPVSLGPESWQQIAMDPEEVKSLDSNGAGEKSENNSSNSDIVHVEKEEVPEGMEEAAVASVVLPARELQEALPEAPAPLLPHITATSLLGTREPDTEVITVEKSSPATSLFVELDEEEVKAATTEPTEVEEVVPALEPTETLLSEKEINAREESLVEELSPASEKKPVPPSEGKSRLSPAGEMKPMPLSEGKS
As for B4, in assay [2], the “effect on cell survival / induction” value is reported as “no longer able to elicit cell death”.

B5: full-length Bcl-rambo: full-length human Bcl-rambo protein, amino acids 1-485, expressed from plasmid (protein, UniProt Q9BXK5 1-485, looked up)
chain: MASSSTVPLGFHYETKYVVLSYLGLLSQEKLQEQHLSSPQGVQLDIASQSLDQEILLKVKTEIEEELKSLDKEISEAFTSTGFDRHTSPVFSPANPESSMEDCLAHLGEKVSQELKEPLHKALQMLLSQPVTYQAFRECTLETTVHASGWNKILVPLVLLRQMLLELTRRGQEPLSALLQFGVTYLEDYSAEYIIQQGGWGTVFSLESEEEEYPGITAEDSNDIYILPSDNSGQVSPPESPTVTTSWQSESLPVSLSASQSWHTESLPVSLGPESWQQIAMDPEEVKSLDSNGAGEKSENNSSNSDIVHVEKEEVPEGMEEAAVASVVLPARELQEALPEAPAPLLPHITATSLLGTREPDTEVITVEKSSPATSLFVELDEEEVKAATTEPTEVEEVVPALEPTETLLSEKEINAREESLVEELSPASEKKPVPPSEGKSRLSPAGEMKPMPLSEGKSILLFGGAAAVAILAVAIGVALALRKK
modifications: full-length
notes: full-length human Bcl-rambo protein, amino acids 1-485, expressed from plasmid
As for B5, in assay [2], the “effect on cell survival / induction” value was “marked proapoptotic effect” and the “increase in caspase-3 activity (times increase in activity induced)” value is “approx. 70 fold”. Further, the homodimer formation entry in assay [5] is reported as “Nor can any homodimers be detected”. Further, in assay [3], the “protein/protein interaction with proapoptotic Bcl-2 family proteins” value was “not possible to detect any protein/protein interaction”. For the same molecule, in assay [4], the “interaction with antiapoptotic Bcl-2 family proteins” value was “not possible to detect any interactions; also recorded: no interactions were observed”.
